Patent CN110256561A (DONGDA BIOLOGY TECH SUZHOU CO LTD, dated 2019)

What was measured:
[1] = target: T1, CTLA-4-hFc蛋白 (human CTLA-4 fused to human Fc) (human, UniProt P16410 36-161, limits assumed); assay: competition ELISA, CTLA-4-hFc coated, competitor CD80-biotin
T1 construct: Coated on ELISA plates; also called CTLA-4-Fc; not shown: human Fc (hFc)
T1 sequence (looked up): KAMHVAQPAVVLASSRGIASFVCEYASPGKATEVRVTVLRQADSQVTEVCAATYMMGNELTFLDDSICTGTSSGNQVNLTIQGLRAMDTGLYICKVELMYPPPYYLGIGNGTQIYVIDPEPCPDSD

[2] = target: T2, 293T-CTLA-4细胞 (human CTLA-4 on 293T cells) (human, UniProt P16410 36-223); assay: FACS on 293T-CTLA-4 cells
T2 construct: whole, on cells; also called 人CTLA-4
T2 sequence (looked up): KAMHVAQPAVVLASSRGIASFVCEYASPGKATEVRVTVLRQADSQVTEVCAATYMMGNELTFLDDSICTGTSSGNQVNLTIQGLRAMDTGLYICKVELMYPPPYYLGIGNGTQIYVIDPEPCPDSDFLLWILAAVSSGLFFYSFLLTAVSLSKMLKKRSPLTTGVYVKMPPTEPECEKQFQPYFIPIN

[3] = target: T1, CTLA-4-hFc蛋白 (human CTLA-4 fused to …); assay: ELISA, CTLA-4-hFc coated; low end of the group's range, tied by Table 5 to 3D2A10
[4] = target: T1, CTLA-4-hFc蛋白 (human CTLA-4 fused to …); assay: competition ELISA, CTLA-4-hFc coated, competitor CD80-biotin; the lowest, tied by Table 6 to 3D2A10
[5] = target: T2, 293T-CTLA-4细胞 (human CTLA-4 on 293T …); assay: competition FACS on 293T-CTLA-4 cells, competitor CD80-biotin
[6] = target: T2, 293T-CTLA-4细胞 (human CTLA-4 on 293T …); assay: competition FACS on 293T-CTLA-4 cells, competitor CD80-biotin; the lowest, tied by Table 8 to 3D2A10
[7] = target: T1, CTLA-4-hFc蛋白 (human CTLA-4 fused to …); assay: ELISA, CTLA-4-hFc coated
[8] = target: T2, 293T-CTLA-4细胞 (human CTLA-4 on 293T …); assay: FACS on 293T-CTLA-4 cells; the lowest, tied by Table 7 to 10F8D1

B1: 3D2A10人源化抗体 (humanized CTLA-4 antibody 3D2A10, IgG1) (antibody, V domains shown)
VH: QVTLKESGPVLVKPTETLTLTCTVSGFSLTNYAVHWIRQPPGKALEWLGVIWSGGYIDYNAVFISRLTISKDNSKSQAVLTMTNMDPVDTATYYCARSGETGTYYFDYWGQGTLVTVSS
VL: EIVMTQSPATLSVSPGERATLSCRASENIYSYLAWYQQKPGQAPRLLVYSATKLANGIPARFSGSGSGTEYTLTISSLQSEDFAVYYCQHFWGTPWTFGGGTKVEIKR
notes: Humanized by CDR grafting with back mutations, built as IgG1, made in 293 cells; also called 人源化CTLA-4抗体3D2A10
In the case of B1, the IC50 [1] is reported as 0.352 mg/L, the EC50 [2] is reported as 0.0788 mg/L and the EC50 [3] is reported as 0.001 mg/L. For the same binder, the IC50 [4] was less than 0.36 mg/L, the IC50 [5] was 0.696 mg/L and the IC50 [6] was less than 0.7 mg/L. It also gave an EC50 [7] of 0.0012 mg/L.

B2: 10F8D1人源化抗体 (humanized CTLA-4 antibody 10F8D1, IgG1) (antibody, V domains shown)
VH: QVQLVQSGAEVKKPGASVKVSCKASGYTFTNYWMHWVRQAPGQGLEWIGYINPTTTYTNYNQKFKDRATLTADKSISTAYMELSRLRSDDTAVYYCATTAQATGYGMDFWGQGTLVTVSS
VL: DIVMTQSPDSLAVSLGERATINCKSTQSLLNSGNQRNYLTWYQQKPGQPPKLLIYWASTRESGVPDRFSGSGSGTDFTLTISSLQAEDVAVYYCQNDYSFPLTFGQGTKLEIKR
notes: Humanized by CDR grafting with back mutations, built as IgG1, made in 293 cells; also called 人源化CTLA-4抗体10F8D1
B2 gave an IC50 [1] of 0.388 mg/L, an EC50 [2] of 0.0231 mg/L and an EC50 [8] of less than 0.024 mg/L. For the same binder, the IC50 [5] was 1.66 mg/L and the EC50 [7] was 0.00149 mg/L.
